The nanobody polyreactivity screen of Harvey et al. (2022)

Assay: yeast display, Sf9 membrane polyspecificity reagent, FACS + sequencing; frameworks hold sequencing errors
Procedure, shortened: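 Polyreactivity labels are assigned by the sorting gate from which each nanobody was recovered. The gates were low and high (top ~1%), set on anti-HA fluorescence for expression and streptavidin fluorescence for reagent binding. Before sorting, galactose-induced (36–48 hours) yeast display cells were stained for 1 hour at 4 °C with 10% biotinylated, detergent-solubilized Sf9 membrane reagent.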

Row | Sequence | polyreactivity (PSR sort gate)
1 | QVQLQESGGGLVQVGGSLRLSCAASGTIFIYGFLGWNRQAPGKERDLVASINLGGITNYADSVKGRFTISRDNAKITVYLQMNSLKPEDTAVYYCAADGGESAWGGYDYWGQGTQGTVSS | low polyreactivity
2 | QVQLQESGGGMVQAGGSLRLSCAASGYISWADYMGWYRQAPGKERELVAGIGYGSTTYYADSVKGRFTISRDNAKNTAYLQMNSLKPEDTAVYYCNADVRYGRDHWGQGTQVTVSS | low polyreactivity
3 | QVQLQESGGGMVQAGGSLRLTCAATGYISSCYPMRWYRQAPGKEREFVATIAPGATTYYADSVKGRFTISRDYAKNTVYLQMNSQKPEATAVYVCAAGPENIDFYSYWGQGTQVTVSS | low polyreactivity
4 | QVQLQESGGGQVLAGGSLRVSCAASGYIPYSRWMGWNRQAPGKEREFVAGIGYGSSTYYADSVKGRFTISRDNAKNTVYLQMNSLKPEDTAVYYCNASIFFRRNVTQVRMDYWGQGSQVTVSS | high polyreactivity
5 | QVQLQESGGGRMQAGGSQRLSCAASGSISYYSDMGWYRQAPGKEREFVAGIGYGTTTNYADSVKGRFTTSRDNAKNTVYLQMISMKPEDTAVYYCAAYQGNGYEFYYWGQGTQVTVRS | low polyreactivity
6 | QVQLQESGGLEQAGVSLRLSCAACGNIFYDTYICWYRQGKERELVASIDHAGSTNYADSVIGRFTISRDNAKNTSYLQRNSLKPDDTAVYYCNAEYTKTGALLIPYTYYYAEDYWGQGTQVTVSS | low polyreactivity
7 | QVQLQESGGLVQAGGLRLSCAASGSDSYQEDMAWYRQAPGKERELVATISFGANTNYADSVKGRFTISRDNAKNTVYLQMNSLKPEDTAVYYCAAESLFDDYYGYWGQGTQVTVSS | low polyreactivity
8 | QVQLQESGGLVQAGGSLRLSCAASGSISGRNVMGWYRQAPGKEREFVASITDGSSTNYADSVKGRFTISRDNAKNTVFLQMNSLKPKDTAVYYCAAYAQGAKSFGYWGRGTQVTVSS | low polyreactivity
9 | QVQLQESGGSLVQAGGSLRLSCAASGNILVLPHGLVSPGAERELVATITGGSITYYADSVKGRFTISRDNAKNTVYLQMNSLKPGDTAVYYCAVINIYHRPHPYWGQGTLVTVSS | high polyreactivity
10 | QVQLQESGGSLVQAGGSLRLSCAASGSISYPRTMGWYRQAPGKEREFVAGIGVGGTTYYADSVKGRFTISRDNAKITVYLQMNSLKPEDTAVYYCARRRSGPSVLYYYWGQGTQVTVSS | low polyreactivity
11 | QVQLQESGGSPVQAGGGLRLSCAASGYISVGSVMGWYRQAPSKERELVASIDQGANTNYADSVKGRFTISRDNAKNNVYLQMNSLKPEDTAVYYCATETTYILNYWGQGTQVTVSS | low polyreactivity
12 | QVQLQESGGVLVQAGGDLRLSCAASGNIFRDYIMGWYRQAPGQERDFVAGIDRGANTNYADSVKGRFTISRDNAKNTVYLQMNSLKPEDTAVYYCAVHTAIVPDFIYWGQGTQVTVSS | low polyreactivity
13 | QVQLQESGGVLVQAGGSLRLSCAARGYISLAQTIGWYRQAPGKEREFVASIALGSSTYYTDSEKGSFTISRDNAKTTVYLQMNSLKPEDTAVYYCAARVGASYAHDYWGQGTEVTVSS | low polyreactivity
14 | QVQLQESGGVLVQAGGSLRLSCAASGSIFVSVTMGWYRQAPGKERELVASIGRGSTTNHADSVKGRFTISRDNAKNIVYLLMNSLKPEDTAVYYCAALESYGKYHGYWGQGTQVTVSS | low polyreactivity
15 | QVQLQESGGVLVQAGGSLRLSCAASGSIYDDTYMGWYRQAPGKERELVATIDSGSTTNYADSVKGRITICRDNAKNSVDLQMNTLKPEDTAVYYCAAADSHIDYFDYWGQGTQVTVSS | low polyreactivity
16 | QVQLQESGGVQEQEGGSLRQSCAESGTIFLYAYMGWYRQAPGKERELVAAIDVGTTTNYADSVKGRFTICRDNAKNTVYLQMNSLKPDDTAVYYCAANLGYLDDLGYWGQGTQVTVSS | low polyreactivity
17 | QVQLQESGRGLVQAGGSLRLSCAASGTISSRWGKGWYLQAPGKERELFASNDQGASTYYADSVKGRFTISRDNAKNTVYLQMNSLKPEDTEVYYCIAVPSSAGDYWGQGTQVTVSS | low polyreactivity
18 | QVQLQESGSGLVQAGGSLRLSCAASGAIFPANLMGWYRQAPGKERELVAGISYGSITYCADSVKGRFNISRDNAKNTVYLQMNSLKPEDTAVYYCAVWRPGGDEYYYWGQGTQVTVSS | low polyreactivity
19 | QVQLQESGVGLVQAGGCLSCTASCTIFGQGDMCWYRQAPGKERELVATINDGASTYYADSVKGRFTISRDKAKNTVYLQMKSLKPDVTAVYYCAVFTDITTYFGYWGQGTQVTVSS | low polyreactivity
20 | QVQLQESGVGLVQAGGSLRLSCAASGYITARDAMVWYRQAPGKEREFVATIASGTTTYYADSVKGSFTISRDNEENTVYLQTNSLKPEDTAVYYCAAPTIQIYPFYYWGQGTQVTVSS | high polyreactivity
21 | QVQLQESRGGLVQAGGSLCLSFAASGTIFFDGDMGGYRQAPGKEREFVAAINPGGSGYYADSVKGRLPLAAITHTVYLQMNSLKPEDTAVYYCAAKLFDVYGYYYWGQGTQVTLSS | low polyreactivity
22 | QVQLQESSGGLVQAGGSLRMSCAASGTIFHFHIMGWYRQAPGKEREFVAAISYGTSTYYADSVKGRFTISRDNAKKTVYLQMNSQKPEDTAVYYCAVYDDLEVYCWYWGQGTEVTVSS | low polyreactivity

Row | Sequence | polyreactivity (PSR sort gate)
23 | QVQLQESVGGLVHAGGSLRLSCAASGSISAVGAMGWYRQAPGKEREFAASVNWGTNTNYADSVKGRFTISRDNAKNTLYLQMNSLKPEDTAVYYCAVLPDWETRHDYWGHGTQVTVSS | low polyreactivity
24 | QVQLQESVGGLVQAGGSLRLSCASSGSISNSAAMGWYRQAPGKERELVVSIGHGASSNYADSVKGRFTISRDNAKNTVYLQMNSLKPEDTAVYYCAAYPGFLDGFFYWGQSTQVTVSS | high polyreactivity
25 | QVQLQESVGGPVLAGGSLRLSCGASGTIFVRLDMGWYRQARGKVREFVATIGSGSSTYYADSVKGSFTISRDNVKNTVYLKMNSLKPEDTAVYYCAVYAAEQSRHYYWDQGTQVTVSS | low polyreactivity
26 | QVQLQGSGGGLVQAGGSLRLSCAASAYIFQNHPMGCNRQAPGKERELVAGIDNGTSTNYADSVNGRFTISRDNAKNTVYLQMNSLKPEDTAVYYCAAAGQADDTLGYWGQGTQVTVSS | low polyreactivity
27 | QVQLQVSGGGLVQAGGSLRLSCAACGSNFLTAEMGWYLQAPGKERELVAAIATGTSTNYADSVKGRFTISRDNAKNTVYLQMNSLKREDTALYYCATYHYWGQGTQVTVSS | low polyreactivity
28 | QVQLRESGAGGRQPAPEMRGERQYFYWSADGLVSQGPGKEREFDAGIDRGTITNYADSVRGRFTISRDNAKNTVYLQMNSLKPEDTAVYYCAVPAYGDPRSYYWGQGTHVTVSS | high polyreactivity
29 | QVQLRESGGGLVQAGGSLRLSCAASGRIFGNYSMGRYRQAPGKEREMVAAISGGGSTYYADSVKGRFTISRDNAKNTVYLQMTSLKPEDTAVYYCADRFLWSVFCRKGGYWGQGTQVTVSS | low polyreactivity
30 | QVQLVASGGGLVQAGGSLLLSCAASGSIFDYNAMGWYRKAPGKERELVAAISSSGGSTYYADSVKGRFTISRDNAKNTVYLQMNSLKPEDTAVYYCNNVSRYILGSGYGYWGQGNQVTVSS | high polyreactivity
31 | QVQLVASGGGLVQAGGSLRFSCAASGRPLSYYAMGWYREAPGKERELVAAISRRGGSTYYADSVKGRFTISRDNAQNTVYIQMNSLKPKDTAVYYCAAETFDYADYIANGSGEYDYWGQGTQVTVSS | high polyreactivity
32 | QVQLVASGGGLVQAGGSLRLSCAASGGTLDYYVMGWYRQAPGKERELVAAISTNGGSTNYADSVKGRFTISRDNAKNTVYLQMNSLKPEDTAVYYCAATSDVYVFLEFDYWGQGTQVTVSS | low polyreactivity
33 | QVQLVASGGGLVQAGGSLRLSSAASGYIFAPNAMGWYRQAPGKERELVAAITFSGGSTSYADSVKGRFTISRDNAKNTVYLQMNSLKPEDTAVYYCNRDDAGIMDYWGLGTQVTVSS | low polyreactivity
34 | QVQLVDSAAGLVQARRSLRLSCAASGRTFPLNVMGWYRLAPGKEREFVAAIRWNGGSTYYADSVKGRFTISRDHAKNTVYLQLNCLIPEDTSVYYCAAQLFRRGRYAGNPMDYWGQGTQVTVSS | high polyreactivity
35 | QVQLVDSAGGLVQSGGSQRLSCAASGSIFHVYPMGCYRQAPGKERELVAAIRRRGGSTYYADSVKGRFTISRDTAKNTVYLQMNSLKPEDTAVYYCAARSVGFYRYDYWGQGTQVTVSS | low polyreactivity
36 | QVQLVDSAVGLVQAGGSLRLSCPASGSIISFYTMGWYRQAPGKERDLVASSTTYADSVKGRFTISRDNAKNTVYLQMNSLKPEVTAVYYCATRHPARRDYWGQGTQVTVSS | low polyreactivity
37 | QVQLVDSGGALVQAGGSLRISCAASGYIFSYKAMGWYRQAPGKERELVAAITSGGSTNYADSVKGRFTISRDNAKNTVYLQMKSLKPEDTAVYYCAAERGDTAYRKYDYWGQGTQVTVSS | low polyreactivity
38 | QVQLVDSGGGLDQAGGSLRLICDASGSIFWWNAMGWYRQAPGKETELVAAINWSTGRTYYADSVKGRFTISRDNAKNTVYLQMNSLKPEDTAVYYCGADVWTPYLISLKSGYDYWGQGTQLTVSS | low polyreactivity
39 | QVQLVDSGGGLDQAGGSLRLSCAASGFTFGDNAMGCYRQAPGKERELVARITGDGSTYYADSVKGRFTISRDNAKNTVYLQMNSLKPEDTAFFYCAADYSPRYTQIEYGYWGQGTQVTVSS | low polyreactivity
40 | QVQLVDSGGGLDQAGGSLRLSCAASGLTFAYNTMGWYRQAPGKERELVADISRSAGSTYYADSVKVRFTISRDNAKNTVFLQMNSLKPDDTAVYYCNAAPYYVLYLLWSSNTYDYWGQGTQVTVSS | high polyreactivity
41 | QVQLVDSGGGLDQAGGSLRLSCAASGRIFGLYAMVWYRTAPGKEKELVAHIDVSDGSTYYADSVKGRFTISLDTAKNTVYLQMNRLKPEDTAVYYCNAEDSSRWYDWYLHDYWGQGTQVTVSS | high polyreactivity
42 | QVQLVDSGGGLGQAGGSLRLSCAASGSIFTTNAMGCYRHAPGKERELVAASSSRGGSTYYADSVKGRFTISRDNAKNTVYLQMNSLKPEDTAVYYCAARYRWPIPGTNYEYWGQGTQVTVSS | low polyreactivity
43 | QVQLVDSGGGLVHAGGSLRLSCAASGSTLIGNAMGWYRQAPWKERELVARISLRGGRTYYADSVKGRFTISRDNAKHTVYLQMNSLKPEDTAVYYCNRGGFSRYYYWGQGTQVTVSS | low polyreactivity
44 | QVQLVDSGGGLVQAEGSLRLSCAPSGIIFGGYAMGWYIPAPGKERELVAAISRSGGSTYYADSVKGRFTISRDNAKNTVYLQMNSLKPEDTAVYYCAADGGAYEYDYWGQGTQVTVSS | high polyreactivity
